From paper PMC12809806, “Structural Analysis of Tilvestamab in Complex with AXL” (ACS Omega, 2025)

What was measured:
[1] = biological target: T1, Monomeric sAXL, the soluble extracellular domain of AXL (human, UniProt P30530); experiment: SEC-SAXS; SWING beamline (SOLEIL), HPLC mode; BioSEC-3 300 or BioSEC-5 1000 column in PBS or 10 mM histidine, 150 mM NaCl, pH 6; proteins alone and mixed, in solution; settings: both partners purified
T1 construct: AXL receptor tyrosine kinase, human, soluble extracellular domain released from AXL-Fc by papain; also called monomeric AXL extracellular domain; source: papain digestion of AXL-Fc (Evitria), followed by protein A purification; not shown: Fc, C-terminal, cleaved
T1 sequence (P30530 26-451): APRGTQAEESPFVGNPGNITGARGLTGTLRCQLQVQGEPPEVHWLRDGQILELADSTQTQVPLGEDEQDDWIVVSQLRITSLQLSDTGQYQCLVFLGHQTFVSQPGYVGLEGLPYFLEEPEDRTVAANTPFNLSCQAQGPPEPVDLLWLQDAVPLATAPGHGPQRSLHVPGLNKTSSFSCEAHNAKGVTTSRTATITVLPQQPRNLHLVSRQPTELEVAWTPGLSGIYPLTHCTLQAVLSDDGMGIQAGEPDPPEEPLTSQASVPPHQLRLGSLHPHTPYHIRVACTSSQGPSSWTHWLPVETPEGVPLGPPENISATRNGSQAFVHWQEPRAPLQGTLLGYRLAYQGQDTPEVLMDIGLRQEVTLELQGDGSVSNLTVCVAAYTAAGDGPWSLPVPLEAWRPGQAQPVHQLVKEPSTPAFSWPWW

[2] = biological target: T2, Human AXL-Fc containing the entire extracellular domain of human AXL (Homo sapiens, UniProt P30530); experiment: as above; settings: both partners purified
T2 construct: AXL receptor tyrosine kinase, human, entire extracellular domain (two Ig-like and two fibronectin type III domains); Dimer through the C-terminal Fc; also called dimeric AXL-Fc; source: bought: Evitria (Switzerland); not shown: Fc, C-terminal, kept
T2 sequence (P30530 26-451): as above

B1: Fab fragment of tilvestamab (Fab, V domains shown)
VH: EVQLVESGGGLVQPGGSLRLSCAASGYSFTDFYINWVRQAPGKGLEWVARIFPGGDNTYYNEKFKGRFTLSADTSKSTAYLQMNSLRAEDTAVYYCARRGLYYAMDYWGQGTLVTVSS
VL: DIQMTQSPSSLSASVGDRVTITCRSSQSLVHSNGIPYLHWYQQKPGKAPKLLIYRVSNRFSGVPSRFSGSGSGTDFTLTISSLQPEDFATYYCSQGTHVPPTFGQGTKVEIK
notes: heavy chain (HC) of the Fab; light chain (LC) of the Fab; also called tilvestamab Fab; source: papain proteolysis of tilvestamab (immobilized papain), MabSelect SuRe column
- stoichiometry N [1]: 1 Fab per sAXL (1:1)
- stoichiometry N [2]: 1 Fab per AXL-Fc chain (2:2)
